Where no end group is shown, it is not given here.
Biological target: Ribosomal protein eL5/uL18 (H. sapiens rpL5) (H. sapiens, UniProt P46777 1-297)
Experiment: NMR titration; 15N-1H HSQC at 25 °C, 35 uM 15N WT N29+P1 or 80 uM KRK→AAA N29+P1 with unlabelled rpL5 at a 1:1 ratio, phosphate buffer pH 6.4 with 5% v/v glycerol; chemical shift perturbations and peak disappearance
Conditions: both partners purified

B1: DCC C-tail N29+P1 protein (residues 1121-1167) (domain or fragment)
chain: CTRRSSAQQRKKRATHSAGKRKGSQKDLRPPDLWIHHEEMEMKNIEK
modifications: also: Cy5 label via maleimide (MST only), 15N-labelled (NMR only)
notes: Residues 1121-1122 were included to give a terminal cysteine for labelling; also called WT N29+P1; DCC N29-P1; source: E. coli LOBSTR-BL21(DE3), purified (Ni-NTA, Superdex 75)
  binding result: binds
